Measurements as given in patent US20110294137A1 (MEDICAL RESEARCH COUNCIL, published 2011).

T1: Rv1827, P9WJA9
T1 chain: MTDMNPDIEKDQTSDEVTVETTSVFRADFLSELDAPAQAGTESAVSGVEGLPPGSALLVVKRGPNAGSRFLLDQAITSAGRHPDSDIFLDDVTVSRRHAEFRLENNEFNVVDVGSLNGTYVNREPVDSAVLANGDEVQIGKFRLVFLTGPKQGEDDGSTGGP

B1: wild-type ParM (other)
chain: MLVFIDDGSTNIKLQWQESDGTIKQHISPNSFKREWAVSFGDKKVFNYTLNGEQYSFDPISPDAVVTTNIAWQYSDVNVVAVHHALLTSGLPVSEVDIVCTLPLTEYYDRNNQPNTENIERKKANFRKKITLNGGDTFTIKDVKVMPESIPAGYEVLQELDELDSLLIIDLGGTTLDISQVMGKLSGISKIYGDSSLGVSLVTSAVKDALSLARTKGSSYLADDIIIHRKDNNYLKQRINDENKISIVTEAMNEALRKLEQRVLNTLNEFSGYTHVMVIGGGAELICDAVKKHTQIRDERFFKTNNSQYDLVNGMYLIGN
notes: Unlabelled, without His6 tag (plasmid pJSC1); also called ParM wild-type
B2: PknB kinase domain (PknB 1-279) (protein)
chain: MTTPSHLSDRYELGEILGFGGMSEVHLARDLRLHRDVAVKVLRADLARDPSFYLRFRREAQNAAALNHPAIVAVYDTGEAETPAGPLPYIVMEYVDGVTLRDIVHTEGPMTPKRAIEVIADACQALNFSHQNGIIHRDVKPANIMISATNAVKVMDFGIARAIADSGNSVTQTAAVIGTAQYLSPEQARGDSVDARSDVYSLGCVLYEVLTGEPPFTGDSPVSVAYQHVREDPIPPSARHEGLSADLDAVVLKALAKNPENRYQTAAEMRADLVRVHNG

What was measured:
[1] = target: the molecule itself; experiment: right angle light scattering at 340 nm, self-polymerisation, 4 mM ATP
Rv1827, P9WJA9 = target: T1, Rv1827, P9WJA9

Protein | critical concentration (filament formation, in presence of ATP) [1] | KM (Rv1827, P9WJA9) | KM value (Michaelis-Menten, initial rate against Rv1827 concentration) (Rv1827, P9WJA9) | kcat (Rv1827, P9WJA9) | kcat (300 µM Rv1827, ATP varied) (Rv1827, P9WJA9) | maximal rate (Rv1827, P9WJA9) | specific activity (Rv1827, P9WJA9)
B1 | 2.5 µM | – | – | – | – | – | –
B2 | – | KM, 20 µM | a KM value of 22 µM | kcat 4.7 min^-1 | kcat, 4.9 min^-1 | a maximal rate of 1.2 µM min^-1 | the specific activity of the PknB kinase domain was calculated for 40 µM ATP as 5.9 s^-1
